From patent publication US20230357341A1

T1: cat EPOR expressed on Ba/F3 cells (BaF3/cat EPOR) (cat)
T1 sequence: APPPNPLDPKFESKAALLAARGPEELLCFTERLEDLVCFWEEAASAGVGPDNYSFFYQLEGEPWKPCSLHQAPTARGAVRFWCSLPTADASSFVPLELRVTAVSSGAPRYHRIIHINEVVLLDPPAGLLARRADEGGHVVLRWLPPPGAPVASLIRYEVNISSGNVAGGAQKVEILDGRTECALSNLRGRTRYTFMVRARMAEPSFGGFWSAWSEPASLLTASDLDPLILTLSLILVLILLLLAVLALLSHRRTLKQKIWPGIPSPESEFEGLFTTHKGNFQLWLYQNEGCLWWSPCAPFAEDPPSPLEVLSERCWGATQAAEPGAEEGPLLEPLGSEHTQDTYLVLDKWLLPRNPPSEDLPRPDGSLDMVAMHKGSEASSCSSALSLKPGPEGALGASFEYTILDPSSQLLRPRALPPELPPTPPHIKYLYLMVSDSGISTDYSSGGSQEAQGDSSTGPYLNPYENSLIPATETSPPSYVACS

T2: mouse EPOR expressed on Ba/F3 cells (BaF3/mouse EPOR) (mouse) (UniProt P14753)
T2 sequence: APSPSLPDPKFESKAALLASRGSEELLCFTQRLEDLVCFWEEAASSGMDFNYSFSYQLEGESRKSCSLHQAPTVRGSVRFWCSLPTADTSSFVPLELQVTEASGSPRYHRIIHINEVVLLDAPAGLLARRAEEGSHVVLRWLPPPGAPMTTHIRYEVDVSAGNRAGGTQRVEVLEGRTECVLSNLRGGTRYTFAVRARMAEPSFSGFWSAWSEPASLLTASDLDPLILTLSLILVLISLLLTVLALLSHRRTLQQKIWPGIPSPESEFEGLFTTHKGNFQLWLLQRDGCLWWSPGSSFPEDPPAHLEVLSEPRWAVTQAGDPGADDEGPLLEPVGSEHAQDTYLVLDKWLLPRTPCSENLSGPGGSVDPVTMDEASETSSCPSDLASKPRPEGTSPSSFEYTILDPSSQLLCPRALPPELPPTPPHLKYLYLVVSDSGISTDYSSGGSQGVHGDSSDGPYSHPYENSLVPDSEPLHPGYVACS

B1: wild-type mouse EPO-His (fusion protein of mouse EPO and His tag) (ligand)
chain: APPRLICDSRVLERYILEAKEAENVTMGCAEGPRLSENITVPDTKVNFYAWKRMEVEEQAIEVWQGLSLLSEAILQAQALLANSSQPPETLQLHIDKAISGLRSLTSLLRVLGAQKELMSPPDTTPPAPLRTLTVDTFCKLFRVYANFLRGKLKLYTGEVCRRGDRGAAHHHHHHHHH
B2: cat EPO-Fc (C165R cat EPO-siCFV3) of Examples 12 and 13 (Fc fusion, not shown: small tags and cut ends)
chain: APPRLICDSRVLERYILEAREAENVTMGCAEGCSFSENITVPDTKVNFYTWKRMDVGQQAVEVWQGLALLSEAILRGQALLANSSQPSETLQLHVDKAVSSLRSLTSLLRALGAQKEATSLPEATSAAPLRTFTVDTLRKLFRIYSNFLRGKLTLYTGEACRRGDRPPEMRRGPKIFIFPPKPKDTLSISRTPEVTCLVVDLGPDDSDVQITWFVDNTQVYTAKTSPREEQFNSTYRVVSVLPILHQDWLKGKEFKCKVNSKSLPSPIERTISKAKGQPHEPQVYVLPPAQEELSRNKVSVTCLIKSFHPPDIAVEWEITGQPEPENNYRTTPPQLDSDGTYFVYSKLSVDRSHWQRGNTYTCSVLHEALHAHHTRKELTQSPGK

How the values were obtained:
[1] = molecular target: T1, cat EPOR expressed on Ba/F3 cells (BaF3/cat EPOR) (cat)
[2] = molecular target: T2, mouse EPOR expressed on Ba/F3 cells (BaF3/mouse EPOR) (mouse)

Row | Molecule | EC50 (read off the curve), BaF3/cat EPOR cell proliferation [1] | EC50 (read off the curve), BaF3/mouse EPOR cell proliferation [2]
1 | human EPO (PeproTech) (from UniProt P01588 28-193) (ligand) | 0.02 nM | –
2 | wild-type cat EPO-His (fusion protein of cat EPO and His tag) (from UniProt P33708 27-192) (ligand) | 0.03 nM | 0.04 nM
3 | B1 | – | 0.05 nM
4 | B2 | 0.02 nM | 0.05 nM
